Ends that are not written are not given here.
T1: biotin-labeled 16-mer PIK3C3 S2E LIR peptide (human, also: biotin label, place not given here)
T1 chain: SEPILTEFELVKVPDP

T2: biotin-labeled 16-mer BECN1 S2E LIR peptide (human, also: biotin label, place not given here)
T2 chain: STEEANEFTLIGEASD

B1: biotin-labeled 16-mer ATG14 LIR peptide (peptide)
chain: ETDLGTDWENLPSPRF
modifications: also: biotin label, place not given here
B2: biotin-labeled 16-mer BECN1 LIR peptide (peptide)
chain: STESANSFTLIGEASD
modifications: also: biotin label, place not given here
B3: biotin-labeled 16-mer PIK3C3 LIR peptide (peptide)
chain: SSPILTSFELVKVPDP
modifications: also: biotin label, place not given here
B4: recombinant GABARAP (biolayer interferometry) (natural protein, UniProt O95166 1-117, looked up)
chain: MKFVYKEEHPFEKRRSEGEKIRKKYPDRVPVIVEKAPKARIGDLDKKKYLVPSDLTVGQFYFLIRKRIHLRAEDALFFFVNNVIPPTSATMGQLYQEHHEEDFFLYIAYSDESVYGL
notes: GABARAP; construct of the BLI experiment not described; source: recombinant
B5: recombinant LC3C (biolayer interferometry) (natural protein, UniProt Q9BXW4 1-126, looked up)
chain: MPPPQKIPSVRPFKQRKSLAIRQEEVAGIRAKFPNKIPVVVERYPRETFLPPLDKTKFLVPQELTMTQFLSIIRSRMVLRATEAFYLLVNNKSLVSMSATMAEIYRDYKDEDGFVYMTYASQETFG
notes: LC3C; construct of the BLI experiment not described; source: recombinant
B6: PIK3C3 242-259 18-mer array peptide, wild type (peptide)
peptide: ESSPILTSFELVKVPDPQ
notes: PIK3C3, human, amino acids 242-259; also called PIK3C3 LIR; source: synthetic peptide, SPOT synthesis on cellulose membrane
B7: BECN1 89-106 18-mer array peptide, wild type (peptide)
peptide: MSTESANSFTLIGEASDG
notes: BECN1, human, amino acids 89-106; also called BECN1 LIR; source: synthetic peptide, SPOT synthesis on cellulose membrane
B8: ATG14 428-445 18-mer array peptide, wild type (peptide)
peptide: ETDLGTDWENLPSPRFCD
notes: ATG14, human, amino acids 428-445; also called ATG14 LIR; source: synthetic peptide, SPOT synthesis on cellulose membrane
B9: PIK3C3 242-259 18-mer array peptide, F250W (peptide)
peptide: ESSPILTSWELVKVPDPQ
notes: PIK3C3, human, amino acids 242-259; source: synthetic peptide, SPOT synthesis on cellulose membrane
B10: PIK3C3 242-259 18-mer array peptide, V253I (peptide)
peptide: ESSPILTSFELIKVPDPQ
notes: as for B9
B11: PIK3C3 242-259 18-mer array peptide, E251I (peptide)
peptide: ESSPILTSFILVKVPDPQ
notes: as for B9
B12: PIK3C3 242-259 18-mer array peptide, E251V (peptide)
peptide: ESSPILTSFVLVKVPDPQ
notes: as for B9
B13: PIK3C3 242-259 18-mer array peptide, E251L (peptide)
peptide: ESSPILTSFLLVKVPDPQ
notes: as for B9
B14: PIK3C3 242-259 18-mer array peptide, E251F (peptide)
peptide: ESSPILTSFFLVKVPDPQ
notes: as for B9
B15: PIK3C3 242-259 18-mer array peptide, L252I (peptide)
peptide: ESSPILTSFEIVKVPDPQ
notes: as for B9
B16: PIK3C3 242-259 18-mer array peptide, L252V (peptide)
peptide: ESSPILTSFEVVKVPDPQ
notes: as for B9
B17: PIK3C3 242-259 18-mer array peptide, L252F (peptide)
peptide: ESSPILTSFEFVKVPDPQ
notes: as for B9
B18: PIK3C3 242-259 18-mer array peptide, L252W (peptide)
peptide: ESSPILTSFEWVKVPDPQ
notes: as for B9
B19: PIK3C3 242-259 18-mer array peptide, L252Y (peptide)
peptide: ESSPILTSFEYVKVPDPQ
notes: as for B9
B20: BECN1 89-106 18-mer array peptide, F97W (peptide)
peptide: MSTESANSWTLIGEASDG
notes: BECN1, human, amino acids 89-106; source: synthetic peptide, SPOT synthesis on cellulose membrane
B21: BECN1 89-106 18-mer array peptide, I100L (peptide)
peptide: MSTESANSFTLLGEASDG
notes: as for B20
B22: BECN1 89-106 18-mer array peptide, T98C (peptide)
peptide: MSTESANSFCLIGEASDG
notes: as for B20
B23: BECN1 89-106 18-mer array peptide, T98E (peptide)
peptide: MSTESANSFELIGEASDG
notes: as for B20
B24: BECN1 89-106 18-mer array peptide, T98I (peptide)
peptide: MSTESANSFILIGEASDG
notes: as for B20
B25: BECN1 89-106 18-mer array peptide, T98V (peptide)
peptide: MSTESANSFVLIGEASDG
notes: as for B20
B26: BECN1 89-106 18-mer array peptide, L99F (peptide)
peptide: MSTESANSFTFIGEASDG
notes: as for B20
B27: BECN1 89-106 18-mer array peptide, L99I (peptide)
peptide: MSTESANSFTIIGEASDG
notes: as for B20
B28: BECN1 89-106 18-mer array peptide, L99W (peptide)
peptide: MSTESANSFTWIGEASDG
notes: as for B20
B29: BECN1 89-106 18-mer array peptide, G101D (peptide)
peptide: MSTESANSFTLIDEASDG
notes: as for B20
B30: BECN1 89-106 18-mer array peptide, G101E (peptide)
peptide: MSTESANSFTLIEEASDG
notes: as for B20
B31: BECN1 89-106 18-mer array peptide, G101P (peptide)
peptide: MSTESANSFTLIPEASDG
notes: as for B20
B32: BECN1 89-106 18-mer array peptide, S96A (peptide)
peptide: MSTESANAFTLIGEASDG
notes: as for B20
B33: BECN1 89-106 18-mer array peptide, S96C (peptide)
peptide: MSTESANCFTLIGEASDG
notes: as for B20
B34: BECN1 89-106 18-mer array peptide, S96D (peptide)
peptide: MSTESANDFTLIGEASDG
notes: as for B20
B35: BECN1 89-106 18-mer array peptide, S96E (peptide)
peptide: MSTESANEFTLIGEASDG
notes: as for B20
B36: BECN1 89-106 18-mer array peptide, S96G (peptide)
peptide: MSTESANGFTLIGEASDG
notes: as for B20
B37: BECN1 89-106 18-mer array peptide, S96T (peptide)
peptide: MSTESANTFTLIGEASDG
notes: as for B20
B38: BECN1 89-106 18-mer array peptide, S96W (peptide)
peptide: MSTESANWFTLIGEASDG
notes: as for B20
B39: ATG14 428-445 18-mer array peptide, W435F (peptide)
peptide: ETDLGTDFENLPSPRFCD
notes: ATG14, human, amino acids 428-445; source: synthetic peptide, SPOT synthesis on cellulose membrane
B40: ATG14 428-445 18-mer array peptide, W435Y (peptide)
peptide: ETDLGTDYENLPSPRFCD
notes: as for B39
B41: ATG14 428-445 18-mer array peptide, L438F (peptide)
peptide: ETDLGTDWENFPSPRFCD
notes: as for B39
B42: ATG14 428-445 18-mer array peptide, D434E (peptide)
peptide: ETDLGTEWENLPSPRFCD
notes: as for B39
B43: ATG14 428-445 18-mer array peptide, E436I (peptide)
peptide: ETDLGTDWINLPSPRFCD
notes: as for B39
B44: ATG14 428-445 18-mer array peptide, E436V (peptide)
peptide: ETDLGTDWVNLPSPRFCD
notes: as for B39

What was measured:
Conditions in all cases: both partners purified
[1] = target: recombinant GABARAPL1 (biolayer interferometry) (UniProt Q9H0R8 1-117); assay: BLI; biotin-LIR peptides (50 µg/ml) on streptavidin biosensors, Atg8-family protein in solution at different concentrations; Octet Red 96; 25°C; global fit, 1:1 model
[2] = target: B5; assay: as above
[3] = target: B4; assay: as above
[4] = target: T1, biotin-labeled 16-mer PIK3C3 S2E LIR …; assay: as above
[5] = target: T2, biotin-labeled 16-mer BECN1 S2E LIR …; assay: as above
GST-GABARAPL1 = target: T3, GST-GABARAPL1 (UniProt Q9H0R8 1-117); assay: peptide or protein array; two-dimensional scan: 18-mer peptides on cellulose membrane, each position replaced with all 20 amino acids; probed with 1 µg/ml GST-GABARAPL1 for 2 h; anti-GST antibody
T3 construct: GABARAPL1 (GABA type A receptor associated protein like 1); also called pDest15 (GST)-GABARAPL1; source: E. coli SoluBL21, purified on glutathione-Sepharose 4 Fast Flow beads

Sequence of recombinant GABARAPL1 (biolayer interferometry) (Q9H0R8 whole entry, looked up): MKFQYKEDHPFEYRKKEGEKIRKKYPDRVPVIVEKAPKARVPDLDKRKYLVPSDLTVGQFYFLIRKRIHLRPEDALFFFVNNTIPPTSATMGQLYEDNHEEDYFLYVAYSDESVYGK

| Binder | binding result (GST-GABARAPL1) | other results |
| --- | --- | --- |
| B1 |  | Kd [1]: 1.9 µM; Kd [2]: 5.85 µM; Kd [3]: 2.85 µM |
| B2 |  | Kd [1]: 7.95 µM; Kd [3]: 10.5 µM |
| B3 |  | Kd [1]: 65 µM; Kd [3]: 49.5 µM |
| B4 |  | fold increase in binding over the wild-type LIR peptide [4]: 17 fold; fold increase in binding affinity over the wild-type LIR peptide [5]: 3 fold |
| B5 |  | fold increase in binding over the wild-type LIR peptide [4]: 15 fold; fold increase in binding affinity over the wild-type LIR peptide [5]: 8 fold |
| B6 | binds |  |
| B7 | binds |  |
| B8 | binds |  |
| B9 | binds |  |
| B10 | binds |  |
| B11 | binds |  |
| B12 | binds |  |
| B13 | binds |  |
| B14 | binds |  |
| B15 | binds |  |
| B16 | binds |  |
| B17 | binds |  |
| B18 | binds |  |
| B19 | binds |  |
| B20 | binds |  |
| B21 | binds |  |
| B22 | binds |  |

| Binder | binding result (GST-GABARAPL1) | other results |
| --- | --- | --- |
| B23 | binds |  |
| B24 | binds |  |
| B25 | binds |  |
| B26 | binds |  |
| B27 | binds |  |
| B28 | binds |  |
| B29 | binds |  |
| B30 | binds |  |
| B31 | binds |  |
| B32 | binds |  |
| B33 | binds |  |
| B34 | binds |  |
| B35 | binds |  |
| B36 | binds |  |
| B37 | binds |  |
| B38 | binds |  |
| B39 | binds |  |
| B40 | binds |  |
| B41 | binds |  |
| B42 | binds |  |
| B43 | binds |  |
| B44 | binds |  |

Reference: publication PMC6613885 (Autophagy, 2019)
